Assay results published in the RNAGym collection of RNA variant scans (doi:10.7554/elife.80360).

B1: HDV Ribozyme (parent)
chain: GGCCGGCAUGGUCCCAGCCUCCUCGCUGGCGCCGGCUGGGCAACAUUCCGAGGGGACCGUCCCCUCGGUAAUGGCGAAUGGGACCCA

Variants of: B1
Assay: self-cleavage, relative activity (ratio to wild type); higher = more cleavage; co-transcriptional
For GGCCGGCAUGGUCCCAGCCUCCUCGGUGGCGCCGGCUGGGCCACAUUCCGAGGGGACCGUCCCCUCGGUAAUGGCGAAUGGGACCCA, the self-cleavage was 0.158.
GGCCGGCAUGGUCCCAGCCUCCUCGCUGGCGCCGGCUGGGCAACAUUCCGAAGGGACCGUCCCCUCGGUAAUGGCGAAUGGCACCCA gave a self-cleavage of 0.362.
Variant GGCCGGCAUGGUCUCAGCCUCCUCGCUGGCGCCGGCUGGGCAACAUUCCGAGGGGACCGUCCCCUCCGUAAUGGCGAAUGGGACCCA has a self-cleavage of 0.929.
GGCCUGCAUGGUCCCAGCCUCCUCGCUGGCGCCGGCUGGGCAACAUUCCGAGGGGACGGUCCCCUCGGUAAUGGCGAAUGGGACCCA gave a self-cleavage of 0.262.
For GGCCGGCAUGGUCCCAGCCUCCUCGCUGGCGCCUGCUGGGCAACAUUCCGAGAGGACCGUCCCCUCGGUAAUGGCGAAUGGGACCCA, the self-cleavage was 0.189.
For GGCCGGCAUGGUCCCAGCCUCCUCGCUUGCGCCGGCUGGGCAUCAUUCCGAGGGGACCGUCCCCUCGGUAAUGGCGAAUGGGACCCA, the self-cleavage was 0.0615.
For GGCCGGCAUGGUCCCAGCCUCCUCGCUGGCGCCGGCUGGGCAACAUUCCGAGGGGACCGUCCCCUCGGUAAUGGCGAAUGGGAUCAA, the self-cleavage was 0.767.
GGCCGGCAUGGUCCCAGCCUCCUCGCUGGCGCCGGCUGGGCAACAUUCCGACGGGACCGUCCCCUCGGUAAUGGUGAAUGGGACCCA gave a self-cleavage of 0.134.
Work on GGCCGGCAUGGUCCCAGCCUCCUCGCUGGCGCCGGCUGGGCAACAUUCCGAGGGGACCGUCCCCUCGGUCAUGGCGAUUGGGACCCA yielded a self-cleavage of 0.162.
GGCCGGCAUGGUCCCAGCCUCCUCGCUGGCGCCGGCUGGGCAUCAUUCCGAGGGGACCGUCCCCUCGGUAAUGGCAAAUGGGACCCA showed a self-cleavage of 0.554.
Variant GGCCGGCAUGGUCCCAGCCUCCGCGCUGGCGCCGGCUGGGCAACAUUCCGAGGGGACCGUCCCCUCGGUAAUGGCGAAUAGGACCCA has a self-cleavage of 0.134.
In the case of GGCCGGCCUGGUCCCAGCCUCCUCGCUGGCGCCGGCUGGGCAACAUUGCGAGGGGACCGUCCCCUCGGUAAUGGCGAAUGGGACCCA, the self-cleavage is reported as 0.175.
In the case of GGCCGGCAUGGUCCCAUCCUCCUCGCUGGCGCCGGCUGGGCAACAUUCCUAGGGGACCGUCCCCUCGGUAAUGGCGAAUGGGACCCA, the self-cleavage is reported as 0.609.
Work on GGCCGGCAUGGUCCCAGCCUCCUCGCUGUCGCCGGCUGGGCAACAUUCCGCGGGGACCGUCCCCUCGGUAAUGGCGAAUGGGACCCA yielded a self-cleavage of 0.0898.
With GGCCGGCAUGGUCUGAGCCUCCUCGCUGGCGCCGGCUGGGCAACAUUCCGAGGGGACCGUCCCCUCGGUAAUGGCGAAUGGGACCCA the self-cleavage was 0.415.
With GGCCGGCAUGGUCCCAGCCUCCUCGCUAGCGCCGGCUGGGCAACAUUCCGAGGGGACCGUCCUCUCGGUAAUGGCGAAUGGGACCCA the self-cleavage was 0.107.
In the case of GGCCGGCAUGGUCCCCGCCUCCUCGCUGGCGCCGGCUGGGCAACAUUCAGAGGGGACCGUCCCCUCGGUAAUGGCGAAUGGGACCCA, the self-cleavage is reported as 0.609.
Variant GGUCGGCAUGGUCCCAGCCUCCUCGCUGGCGCCGGCUGGGCAACAUUCCGAGGGGACCGUCCCCUGGGUAAUGGCGAAUGGGACCCA has a self-cleavage of 0.758.
With GGCCGGCAUGGUCCCACCCUCCUCGCUCGCGCCGGCUGGGCAACAUUCCGAGGGGACCGUCCCCUCGGUAAUGGCGAAUGGGACCCA the self-cleavage was 0.125.
Variant GGCAGGCAUGGUCCCAGCCUCCUCGCUGGCGCCGGCUGGGCAACAUUCCGAGGGGACCGUCCCCUCGGAAAUGGCGAAUGGGACCCA has a self-cleavage of 0.185.
GGCCGGCAUGGUCCCAGCCUCCUCGCUGGCGCCGGCUGGGCAAUAUUCCGAGGGGACCGUCCCCUCGGUAAUGGCGAAUGGGCCCCA gave a self-cleavage of 0.314.
With GGCCGGCAUGGUCCCAGCCUCCUCGCUAGCGCCGGCUGGGCAACAUUCCGAGGGGACCGUCCCCUCGGUAAUGGUGAAUGGGACCCA the self-cleavage was 0.0563.
Work on GGCCGGCAUGGUCCCAGCCUCCUCGCUGGCGCCGGCUGGGCAACAUUCCGAGGGGACCGUUCCCUCGGUAAUGGCGAAUGAGACCCA yielded a self-cleavage of 0.44.
With GGCCGGCAUGGUGCCAGCCUCCUCGCUGGCGCCGGCUGGGCAACAUUCCGACGGGACCGUCCCCUCGGUAAUGGCGAAUGGGACCCA the self-cleavage was 0.0475.
With GGCCGGCAUGGUCCCAGCCUCCUCACUGGCGCCGGCUGGGCAACAUUCCGAGGGGACCGUCCCCUAGGUAAUGGCGAAUGGGACCCA the self-cleavage was 0.287.
For GGCCGGCAUGGUCCCAGCCUCCUCGCUGGCGCCGGCUGUGCAACAUUCCGAGGGGACCGUCCCCUCCGUAAUGGCGAAUGGGACCCA, the self-cleavage was 0.746.
Variant GGCCGGCAUGGUCCCAGCCUCCUCGCUGGCGCCGGCUGGGCAACAUUCCGAGGGGACCGUCCCCUCGGUUAGGGCGAAUGGGACCCA has a self-cleavage of 0.554.
Work on GGCCGGCAUGGUACCAGCCUCCUCGCUGCCGCCGGCUGGGCAACAUUCCGAGGGGACCGUCCCCUCGGUAAUGGCGAAUGGGACCCA yielded a self-cleavage of 0.
GUCCGGCAUGGUCCCAGCCUCCUCGCUGGCGCCGGAUGGGCAACAUUCCGAGGGGACCGUCCCCUCGGUAAUGGCGAAUGGGACCCA gave a self-cleavage of 0.366.
Work on GGCCGGCAUGGUCCCAGCCUCCUCGCUGGCGCCGGCUGGGCAACAUUCCGAGGAGACCGUCCCCUCGGAAAUGGCGAAUGGGACCCA yielded a self-cleavage of 0.982.
For GGCCGGCAUGGUCCCAGCGUCCUCGCUGGCGCCGGCUGGUCAACAUUCCGAGGGGACCGUCCCCUCGGUAAUGGCGAAUGGGACCCA, the self-cleavage was 0.0997.
Variant GGCCGGCAUGGUCCCAGCCUCCUCGCUGGCGCCGGCUGGGCAACAUUCCGACGGGACCGUCCCCUCGGUAAUGGCGAAUCGGACCCA has a self-cleavage of 0.326.
With GGCCGGCAUGGUCCCAGCCUCCUCGCUGGCGCCGGAUGGGCAACAUUCCGAGGGGACCGUCCCCUAGGUAAUGGCGAAUGGGACCCA the self-cleavage was 0.151.
In the case of GGCCGGCAUGGUCCCAGCCUCUUCGCUGGCGCCGGCUGGGCAACAUUCCGAGGGUACCGUCCCCUCGGUAAUGGCGAAUGGGACCCA, the self-cleavage is reported as 0.732.
For GGCCGGCAUGGUCCCAGCCUCCUCGCUGGCGCCGGCUGGGCAACAUUCCGAGGGGACCGUCCCCUCGGUAAUGGCGAUUGGGACGCA, the self-cleavage was 0.326.
GGACGGCAUGGUCCCAGCCUCCUCGCAGGCGCCGGCUGGGCAACAUUCCGAGGGGACCGUCCCCUCGGUAAUGGCGAAUGGGACCCA showed a self-cleavage of 0.306.
GGCCGGGAUGGUCCCAGCCUCCUCGCUGGCGCCGGCUGGGCAACAUUCCGAGGGGACCGUCCCCUCGGUAGUGGCGAAUGGGACCCA showed a self-cleavage of 0.151.
For GGCGGGCAUGGUCCCAGCCUCCUCGCUGGCGCCGGCUGGACAACAUUCCGAGGGGACCGUCCCCUCGGUAAUGGCGAAUGGGACCCA, the self-cleavage was 0.237.
GGCCGGCAUGGUCCCAGCCUCCUCGCUGGCGCCGGCUUGGCAACAUUCCGAGGGGACCGUCCCCUCGGUAAUGGCGAAUGGGACACA showed a self-cleavage of 0.205.
GGCCGGCAUGGUCCCAGCCUCCUCGCUGGCGCCGGCUGGGCAACAUUCCGGGGGGACCGUCCCCUCGGUAAUGGCGAAUGGGACUCA gave a self-cleavage of 0.743.
GGCCGGCAUAGUCCCAGCCUCCUCGCUGGCGCCGGCUGGGCAACAUUCCGAGGGGACCGUCCCCUCGGUAAUGGCAAAUGGGACCCA gave a self-cleavage of 1.04.
With GGCCGGCAUGGUCCCAGCCUCCUCGCUGGCGCCGGCUGGGCAACUUUCCGAGGGGACCGUCGCCUCGGUAAUGGCGAAUGGGACCCA the self-cleavage was 0.798.
In the case of GGCCGGCAUGGUCCCAGCCUCCUCGCUGGCGCCGGCUGGGCAACAUUCCGAGGGGACCGUCCUCUCGGUAAUGGCGAAUGGGACCCU, the self-cleavage is reported as 1.01.
For GGCCGGCAUGGUCCCAGACUCCUCGCUGGCGACGGCUGGGCAACAUUCCGAGGGGACCGUCCCCUCGGUAAUGGCGAAUGGGACCCA, the self-cleavage was 0.106.
With GGCCGGCAUGGUCCAAGCCUCCUGGCUGGCGCCGGCUGGGCAACAUUCCGAGGGGACCGUCCCCUCGGUAAUGGCGAAUGGGACCCA the self-cleavage was 0.032.
With GGCCGGCAUGGUCCCAGCCUCCUCGUUGGCGCCGGCUGGGCAACAUUCCGAUGGGACCGUCCCCUCGGUAAUGGCGAAUGGGACCCA the self-cleavage was 0.956.
GGCCGGCAUGGUCCCAGCCUCCACGCUGGCGCCGGCUGGGCAACAUUCCGAGGGGACCGUCCCCUCGGUAAUGGCCAAUGGGACCCA gave a self-cleavage of 1.1.
GGCCGGCAUGGUCCCAGCCUCCUCGCUGGCGCCGGCUGGGCAACAUUCCGAGGGGACCGUGCCCUCGUUAAUGGCGAAUGGGACCCA showed a self-cleavage of 0.964.
Work on GGCCGGCAUUGUCCCAGCCUCCUCGCUGGCGCCGGCUGGGCAACAUUCCGAGGGGACCGGCCCCUCGGUAAUGGCGAAUGGGACCCA yielded a self-cleavage of 0.724.
Work on GGCCGGCAUGGUCCCAGCCUCCUCGCUGGCGCCGGCUGGGGAACAUUCCGAGGGGACCGUCCCCUCGGUAAUUGCGAAUGGGACCCA yielded a self-cleavage of 0.378.
With GGCCGGCAUGGUCUCAGCCUCCUCGCUGGCGCCGGCUGGUCAACAUUCCGAGGGGACCGUCCCCUCGGUAAUGGCGAAUGGGACCCA the self-cleavage was 0.724.
In the case of GGCCGGCAUGGUCCCAGCCUCCUCGCUGGCGCCGACUGGGCAACAUUCCGAGGGGACCGUCCCGUCGGUAAUGGCGAAUGGGACCCA, the self-cleavage is reported as 0.31.
GGCCGGCAUGGUCCCAGCCUCCUCGCUGGCGCCGGUUGCGCAACAUUCCGAGGGGACCGUCCCCUCGGUAAUGGCGAAUGGGACCCA showed a self-cleavage of 0.119.
In the case of GGCCGGCAUGGUCCCAGCCUCCUCGCUGGCGCCGGCUGGGCAACAUUCCGAGGGGAUCGUCCCCUCGGUAAUGGCGAAUUGGACCCA, the self-cleavage is reported as 0.147.
GGCCGGCAUGGUCCCAGCCUCCUCGCUGGUGCCGGCUGGGCAACGUUCCGAGGGGACCGUCCCCUCGGUAAUGGCGAAUGGGACCCA showed a self-cleavage of 0.796.
For GGCCGGCAUGGUCCCAGCCUCCUCGCUGGCGCCGGCUGGGCAACAUGCCGAGGGGACCGUCCCCUCGGUAAGGGCGAAUGGGACCCA, the self-cleavage was 0.623.
With GGCCGGCAUGGUCCCAGCCUCCUCGCUGGCGCCGGCUGGGCCACAUUCCGAGGGGACCGUCCCCUCGGUAAUGCCGAAUGGGACCCA the self-cleavage was 0.166.
GGCCGGCAUGGUCCCAGCCUCCUCGCUGGCGCCGGCUGGGCAACAUUCCGAGGGGACCGUCCCCUCGGCAACGGCGAAUGGGACCCA showed a self-cleavage of 0.9.
GGCCGGCAUGGUCCCAGCCUCCUCGCAGGCGCCGGCUGGGCAACAUUCCGAGGAGACCGUCCCCUCGGUAAUGGCGAAUGGGACCCA showed a self-cleavage of 0.961.
GGCCGGCAUGGUCCCAGCCUCCUCGCUGGCGCCGGCUGGGCAACAUGCCGAGGGGACCGUCCCCUCGGUAGUGGCGAAUGGGACCCA showed a self-cleavage of 1.11.
With GGCCGGCAUGGUCCCAGCCUCCUCGCUGGCGCCGGCUGGGCAACAUUCCGAGGGGAUCGUCCCCUCGGUAAUCGCGAAUGGGACCCA the self-cleavage was 0.748.
With GGCCGGCAUGGUCCCAGCCUCCUCGCUGGCGCCGGCUGGGCAACAUUCCGAUGGGACCGUCCCCUCGGUAAUGGCAAAUGGGACCCA the self-cleavage was 0.936.
GGCCGGCAUGGUCCCAGCCUCCUCGCUGGCGCCGGCUGGUCAACAUUCCGAGGUGACCGUCCCCUCGGUAAUGGCGAAUGGGACCCA gave a self-cleavage of 0.665.
With GUCCGGCAUGCUCCCAGCCUCCUCGCUGGCGCCGGCUGGGCAACAUUCCGAGGGGACCGUCCCCUCGGUAAUGGCGAAUGGGACCCA the self-cleavage was 0.0314.
